This note sets out measurements from patent publication US20150203577A1 (Chugai, published 2015).

Read-outs that look alike come from different tables or passages of the source.

The target of test [1] is T1, mouse FcγRII extracellular domain, C-terminal His tag (mouse, UniProt P08101 30-210).
T1 construct: Whole entry named; also called mFcγRII; mFcgRII
T1 sequence: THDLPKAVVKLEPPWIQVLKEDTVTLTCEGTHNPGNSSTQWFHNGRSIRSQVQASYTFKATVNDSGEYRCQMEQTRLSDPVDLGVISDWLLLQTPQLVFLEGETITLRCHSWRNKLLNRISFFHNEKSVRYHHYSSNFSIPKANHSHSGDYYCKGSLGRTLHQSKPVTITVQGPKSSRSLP
Briefly: SPR (Biacore T200); KD of H237-mIgG1/MRAL-k0 / KD of variant. The text has this: (§1) The antibody H chain variable region used was the variable region H237 (SEQ ID NO: 1) of the H chain VH3-IgG1 of the anti-IL-6 receptor antibody Fv4-IgG1 described in WO2009/125825. The antibody L chain commonly used was the L chain MRAL-k0 (SEQ ID NO: 2) of the anti-IL-6 receptor antibody tocilizumab. The aforementioned 11 variants were used as templates to introduce the alteration. These variants were expressed and purified by the method of Reference Example 1 and evaluated for their binding to mFcγRII and mFcγRIII by the method of Reference Example 2 using Biacore T200.
(§2) Each altered antibody was analyzed for its interaction with each Fcγ receptor prepared above using Biacore T100 (GE Healthcare Japan Corp.), Biacore T200 (GE Healthcare Japan Corp.), Biacore A100, or Biacore 4000. The running buffer used was HBS-EP+ (GE Healthcare Japan Corp.). The assay temperature was set to 25° C. The sensor chips used were chips prepared by immobilizing Protein L (ACTIGEN or BioVision) onto Series S Sensor Chip CM5 (GE Healthcare Japan Corp.) or Series S Sensor Chip CM4 (GE Healthcare Japan Corp.) by the amine coupling method.
(§3) In order to calculate the KD value of each altered antibody for FcγR, kinetic analysis was conducted according to the following method: first, the antibody of interest was captured onto any of these chips and allowed to interact with mFcγR diluted with a running buffer. For the obtained sensorgram, the assay results were globally fit into the 1:1 Langmuir binding model using Biacore Evaluation Software to calculate an association rate constant ka (L/mol/s) and a dissociation rate constant kd (1/s). From these values, the dissociation constant KD (mol/L) was calculated.
Background: Surface plasmon resonance follows binding to a sensor surface in real time, without labels.

The target of test [2] is T2, mouse FcγRIII extracellular domain, C-terminal His tag (mouse, UniProt P08508 31-215).
T2 construct: Whole entry named; also called mFcγRIII; mFcgRIII
T2 chain: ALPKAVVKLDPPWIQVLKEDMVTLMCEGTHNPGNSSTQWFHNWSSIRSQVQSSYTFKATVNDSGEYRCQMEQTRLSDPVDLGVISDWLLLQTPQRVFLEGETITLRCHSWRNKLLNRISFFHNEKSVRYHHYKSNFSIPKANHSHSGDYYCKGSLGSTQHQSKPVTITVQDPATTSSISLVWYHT
The description is as above.
Excerpt: as §1, §2, §3

Test [3] has as its target T1, mouse FcγRII extracellular domain, …. The test is described as above.
Excerpt: (§4) The antibody H chain variable region used was the variable region H237 (SEQ ID NO: 1) of the H chain VH3-IgG1 of the anti-IL-6 receptor antibody Fv4-IgG1 described in WO2009/125825. The antibody L chain commonly used was the L chain MRAL-k0 (SEQ ID NO: 2) of the anti-IL-6 receptor antibody tocilizumab. H237-MB716/MRAL-k0 was used as a template to introduce the alterations. These variants were expressed and purified by the method of Reference Example 1 and evaluated for their binding to mFcγRII and mFcγRIII by the method of Reference Example 2 using Biacore T200.
as §2
The source holds these as a separate data set.

For test [4], the target named is T2, mouse FcγRIII extracellular domain, …. Described as above.
Excerpt: as §4, §2

For test [5], the target named is T1, mouse FcγRII extracellular domain, …. Briefly: SPR (Biacore T200); KD of H237-MB716/MRAL-k0 / KD of variant.
Excerpt: as §4, §2

Test [6] deals with T2, mouse FcγRIII extracellular domain, …. The description is as above.
Excerpt: as §4, §2

B1: H237-MB726/MRAL-k0 (antibody, mouse IgG1, kappa)
heavy: QVQLQESGPGLVKPSETLSLTCAVSGHSISHDHAWSWVRQPPGEGLEWIGFISYSGITNYNPSLQGRVTISRDNSKNTLYLQMNSLRAEDTAVYYCARSLARTTAMDYWGEGTLVTVSSAKTTPPSVYPLAPGSAAQTNSMVTLGCLVKGYFPEPVTVTWNSGSLSSGVHTFPAVLQSDLYTLSSSVTVPSSTWPSETVTCNVAHPASSTKVDKKIVPRDCGCKPCICEVYEEEDVFIFPPKPKDVLTITLTPKVTCVVVDISKDDPEVQFSWFVDDVEVHTAQTQPREEQFNSTFRSVSELPIMHQDWLNGKEFKCRVNSAAFPAPIEKTISKTKGRPKAPQVYTIPPPKEQMAKDKVSLTCMITDFFPEDITVEWQWNGQPAENYKNTQPIMDTDGSYFVYSKLNVQKSNWEAGNTFTCSVLHEGLHNHHTEKSLSHSPGK
light: not shown
notes: copies: 2 + 2
As to B1, in test [1], the “relative mFcγRII-binding activity (mIgG1 = 1)” value is 35.7 fold. The “relative mFcγRIII-binding activity (mIgG1 = 1)” value in test [2] is 2.08 fold.

B2: H237-MB730/MRAL-k0 (antibody, mouse IgG1, kappa)
heavy: QVQLQESGPGLVKPSETLSLTCAVSGHSISHDHAWSWVRQPPGEGLEWIGFISYSGITNYNPSLQGRVTISRDNSKNTLYLQMNSLRAEDTAVYYCARSLARTTAMDYWGEGTLVTVSSAKTTPPSVYPLAPGSAAQTNSMVTLGCLVKGYFPEPVTVTWNSGSLSSGVHTFPAVLQSDLYTLSSSVTVPSSTWPSETVTCNVAHPASSTKVDKKIVPRDCGCKPCICQPNEEEDVFIFPPKPKDVLTITLTPKVTCVVVDISKDDPEVQFSWFVDDVEVHTAQTQPREEQFNSTFRSVSELPIMHQDWLNGKEFKCRVNSAAFPAPIEKTISKTKGRPKAPQVYTIPPPKEQMAKDKVSLTCMITDFFPEDITVEWQWNGQPAENYKNTQPIMDTDGSYFVYSKLNVQKSNWEAGNTFTCSVLHEGLHNHHTEKSLSHSPGK
light: not shown
notes: copies: 2 + 2
For B2, the “relative mFcγRII-binding activity (mIgG1 = 1)” value in test [1] turned out to be 7.24 fold. In addition, in test [2], the “relative mFcγRIII-binding activity (mIgG1 = 1)” value came out at 0.43 fold.

B3: H237-MB727/MRAL-k0 (antibody, mouse IgG1, kappa)
heavy: QVQLQESGPGLVKPSETLSLTCAVSGHSISHDHAWSWVRQPPGEGLEWIGFISYSGITNYNPSLQGRVTISRDNSKNTLYLQMNSLRAEDTAVYYCARSLARTTAMDYWGEGTLVTVSSAKTTPPSVYPLAPGSAAQTNSMVTLGCLVKGYFPEPVTVTWNSGSLSSGVHTFPAVLQSDLYTLSSSVTVPSSTWPSETVTCNVAHPASSTKVDKKIVPRDCGCKPCICEPAEEEDVFIFPPKPKDVLTITLTPKVTCVVVDISKDDPEVQFSWFVDDVEVHTAQTQPREEQFNSTFRSVSELPIMHQDWLNGKEFKCRVNSAAFPAPIEKTISKTKGRPKAPQVYTIPPPKEQMAKDKVSLTCMITDFFPEDITVEWQWNGQPAENYKNTQPIMDTDGSYFVYSKLNVQKSNWEAGNTFTCSVLHEGLHNHHTEKSLSHSPGK
light: not shown
notes: copies: 2 + 2
In the case of B3, the “relative mFcγRII-binding activity (mIgG1 = 1)” value in test [1] came out at 11.7 fold. Further, the “relative mFcγRIII-binding activity (mIgG1 = 1)” value in test [2] is 0.66 fold.

B4: H237-MB732/MRAL-k0 (antibody, mouse IgG1, kappa)
heavy: QVQLQESGPGLVKPSETLSLTCAVSGHSISHDHAWSWVRQPPGEGLEWIGFISYSGITNYNPSLQGRVTISRDNSKNTLYLQMNSLRAEDTAVYYCARSLARTTAMDYWGEGTLVTVSSAKTTPPSVYPLAPGSAAQTNSMVTLGCLVKGYFPEPVTVTWNSGSLSSGVHTFPAVLQSDLYTLSSSVTVPSSTWPSETVTCNVAHPASSTKVDKKIVPRDCGCKPCICEPNEEELVFIFPPKPKDVLTITLTPKVTCVVVDISKDDPEVQFSWFVDDVEVHTAQTQPREEQFNSTFRSVSELPIMHQDWLNGKEFKCRVNSAAFPAPIEKTISKTKGRPKAPQVYTIPPPKEQMAKDKVSLTCMITDFFPEDITVEWQWNGQPAENYKNTQPIMDTDGSYFVYSKLNVQKSNWEAGNTFTCSVLHEGLHNHHTEKSLSHSPGK
light: not shown
notes: copies: 2 + 2
As for B4, in test [1], the “relative mFcγRII-binding activity (mIgG1 = 1)” value amounted to 0.84 fold. Moreover, the “relative mFcγRIII-binding activity (mIgG1 = 1)” value in test [2] is 0.03 fold.

B5: H237-MB729/MRAL-k0 (antibody, mouse IgG1, kappa)
heavy: QVQLQESGPGLVKPSETLSLTCAVSGHSISHDHAWSWVRQPPGEGLEWIGFISYSGITNYNPSLQGRVTISRDNSKNTLYLQMNSLRAEDTAVYYCARSLARTTAMDYWGEGTLVTVSSAKTTPPSVYPLAPGSAAQTNSMVTLGCLVKGYFPEPVTVTWNSGSLSSGVHTFPAVLQSDLYTLSSSVTVPSSTWPSETVTCNVAHPASSTKVDKKIVPRDCGCKPCICEPNEEEDVFIFPPKPKDVLTITLTPKVTCVVVDISKDDPEVQFSWFVDDVEVHTAQTQPREEQFNSTFRSVSELPIMHQDWLNGKEFKCRVNSAAFPAPIEKTISKTKGRPKAPQVYTIPPPKEQMAKDKVSLTCMITDFFPEDITVEWQWNGQPAENYKNTQPIMDTDGSYFVYSKLNVQKSNWEAGNTFTCSVLHEGLHNHHTEKSLSHSPGK
light: not shown
notes: copies: 2 + 2
Consider B5, for which the “relative mFcγRII-binding activity (mIgG1 = 1)” value in test [1] was determined as 10.4 fold. Moreover, in test [2], the “relative mFcγRIII-binding activity (mIgG1 = 1)” value amounted to 0.53 fold.

B6: H237-MB866/MRAL-k0 (antibody, mouse IgG1, kappa)
heavy: QVQLQESGPGLVKPSETLSLTCAVSGHSISHDHAWSWVRQPPGEGLEWIGFISYSGITNYNPSLQGRVTISRDNSKNTLYLQMNSLRAEDTAVYYCARSLARTTAMDYWGEGTLVTVSSAKTTPPSVYPLAPGSAAQTNSMVTLGCLVKGYFPEPVTVTWNSGSLSSGVHTFPAVLQSDLYTLSSSVTVPSSTWPSETVTCNVAHPASSTKVDKKIVPRDCGCKPCICEPNEVEIVFIFPPKPKDVLTITLTPKVTCVVVDISKDDPEVQFSWFVDDVEVHTAQTQPREEQFNSTFRSVSELPIMHQDWLNGKEFKCRVNSDGFPAPIEKTISKTKGRPKAPQVYTIPPPKEQMAKDKVSLTCMITDFFPEDITVEWQWNGQPAENYKNTQPIMDTDGSYFVYSKLNVQKSNWEAGNTFTCSVLHEGLHNHHTEKSLSHSPGK
light: not shown
notes: copies: 2 + 2
Turning to B6, in test [3], the “relative mFcγRII-binding activity (mIgG1 = 1)” value turned out to be 13 fold. Moreover, the “relative mFcγRIII-binding activity (mIgG1 = 1)” value in test [4] stood at 0.18 fold. For the same molecule, the “relative mFcγRII-binding activity (MB716 = 1)” value in test [5] was 3 fold. Further, in test [6], the “relative mFcγRIII-binding activity (MB716 = 1)” value was 3.02 fold.

B7: H237-MB867/MRAL-k0 (antibody, mouse IgG1, kappa)
heavy: QVQLQESGPGLVKPSETLSLTCAVSGHSISHDHAWSWVRQPPGEGLEWIGFISYSGITNYNPSLQGRVTISRDNSKNTLYLQMNSLRAEDTAVYYCARSLARTTAMDYWGEGTLVTVSSAKTTPPSVYPLAPGSAAQTNSMVTLGCLVKGYFPEPVTVTWNSGSLSSGVHTFPAVLQSDLYTLSSSVTVPSSTWPSETVTCNVAHPASSTKVDKKIVPRDCGCKPCICEPNEVEIVFIFPPKPKDVLTITLTPKVTCVVVDISDDDPEVQFSWFVDDVEVHTAQTQPREEQFNSTFRSVSELPIMHQDWLNGKEFKCRVNSDGFPAPIEKTISKTKGRPKAPQVYTIPPPKEQMAKDKVSLTCMITDFFPEDITVEWQWNGQPAENYKNTQPIMDTDGSYFVYSKLNVQKSNWEAGNTFTCSVLHEGLHNHHTEKSLSHSPGK
light: not shown
notes: copies: 2 + 2
Turning to B7, the “relative mFcγRII-binding activity (mIgG1 = 1)” value in test [3] turned out to be 35.2 fold. Moreover, in test [4], the “relative mFcγRIII-binding activity (mIgG1 = 1)” value came to 0.85 fold. For the same molecule, in test [5], the “relative mFcγRII-binding activity (MB716 = 1)” value worked out at 8.1 fold. The “relative mFcγRIII-binding activity (MB716 = 1)” value in test [6] is 14.3 fold.

B8: H237-MB731/MRAL-k0 (antibody, mouse IgG1, kappa)
heavy: QVQLQESGPGLVKPSETLSLTCAVSGHSISHDHAWSWVRQPPGEGLEWIGFISYSGITNYNPSLQGRVTISRDNSKNTLYLQMNSLRAEDTAVYYCARSLARTTAMDYWGEGTLVTVSSAKTTPPSVYPLAPGSAAQTNSMVTLGCLVKGYFPEPVTVTWNSGSLSSGVHTFPAVLQSDLYTLSSSVTVPSSTWPSETVTCNVAHPASSTKVDKKIVPRDCGCKPCICEPAEEELVFIFPPKPKDVLTITLTPKVTCVVVDISKDDPEVQFSWFVDDVEVHTAQTQPREEQFNSTFRSVSELPIMHQDWLNGKEFKCRVNSAAFPAPIEKTISKTKGRPKAPQVYTIPPPKEQMAKDKVSLTCMITDFFPEDITVEWQWNGQPAENYKNTQPIMDTDGSYFVYSKLNVQKSNWEAGNTFTCSVLHEGLHNHHTEKSLSHSPGK
light: not shown
notes: copies: 2 + 2
In the case of B8, the “relative mFcγRII-binding activity (mIgG1 = 1)” value in test [1] worked out at 7.13 fold. The “relative mFcγRIII-binding activity (mIgG1 = 1)” value in test [2] stood at 0.03 fold.
